# In patent US5753483A, “Purified homogeneous UDP-GlcNAc (GalNAc) pyrophosphorylase” (priority 1995, dated 1998):
# Columns and labels:
# [1] = tested on: CC(=O)NC1C(OP(=O)(O)OP(=O)(O)OCC2OC(n3ccc(=O)[nH]c3=O)C(O)C2O)OC(CO)C(O)C1O; assay: purified protein, by the assay type; conditions: other: reverse direction, PP = 1 mM; 37.0 °C
# [2] = tested on: CC(=O)N[C@H]1[C@@H](OP(=O)(O)OP(=O)(O)OC[C@H]2O[C@@H](n3ccc(=O)[nH]c3=O)[C@H](O)[C@@H]2O)O[C@H](CO)[C@H](O)[C@@H]1O; assay: purified protein, by the assay type; conditions: other: reverse direction, PP = 1 mM; 37.0 °C
# Chain of Pyrophosphorylase (Sus scrofa) (chain, as listed by the source): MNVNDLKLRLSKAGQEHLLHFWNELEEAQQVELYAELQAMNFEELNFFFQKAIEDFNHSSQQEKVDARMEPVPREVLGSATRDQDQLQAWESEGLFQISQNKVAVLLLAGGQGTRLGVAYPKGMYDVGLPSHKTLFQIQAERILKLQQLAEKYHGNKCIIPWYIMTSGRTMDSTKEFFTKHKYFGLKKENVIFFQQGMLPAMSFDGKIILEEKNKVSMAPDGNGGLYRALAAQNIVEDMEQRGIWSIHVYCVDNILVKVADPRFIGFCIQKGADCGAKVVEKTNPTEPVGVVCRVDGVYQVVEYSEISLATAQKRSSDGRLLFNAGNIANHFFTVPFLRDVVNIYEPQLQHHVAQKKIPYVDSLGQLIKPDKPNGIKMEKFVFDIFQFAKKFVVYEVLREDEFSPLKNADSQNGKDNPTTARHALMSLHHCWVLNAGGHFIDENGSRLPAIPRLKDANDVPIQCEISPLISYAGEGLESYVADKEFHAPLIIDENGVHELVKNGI
substance,measurement,setting,value
Pyrophosphorylase (Sus scrofa),Km,[1],45 µM
same,Km,[2],200 µM
